Results published in EP4674868A1 (Jiangsu Hengrui Pharmaceuticals Co., Ltd., dated 2026).
Positions count from the first letter of the chain named. In names and notes the source's numbering stands. Like-named read-outs stand apart in the source and are kept apart here. Values belong to the binder of their own block, whether it stands above or below them.

Legend:
[1] = target: T1, human 4-1BB on the surface of HEK293 cells (HEK293-Hu4-1BB) (human, UniProt Q07011 24-255); assay: FACS, HEK293-Hu4-1BB cells
T1 construct: whole, on cells; also called CD137; cell strain highly expressing human 4-1BB

[2] = target: T1, human 4-1BB on the surface of HEK293 …; assay: cell-based or functional assay
[3] = target: T1, human 4-1BB on the surface of HEK293 …; assay: FACS, HEK293-Hu4-1BB cells; remark: listed apart in the source
[4] = target: T1, human 4-1BB on the surface of HEK293 …; assay: FACS, HEK293-Hu4-1BB cells; remark: listed apart in the source
[5] = target: T2, human CD40 on the surface of HEK293 cells (HEK293-HuCD40) (human, UniProt P25942 21-277); assay: cell-based or functional assay
[6] = target: T3, human FAP on the surface of CHO-K1 cells (CHO-K1-HuFAP) (human, UniProt Q12884 1-760); assay: FACS, CHO-K1-HuFAP cells
T3 construct: whole, on cells; also called CHO cell line overexpressing human FAP; FAP on the surface of CHO-K1-HuFAP cells

[7] = target: T2, human CD40 on the surface of HEK293 …; assay: FACS, HEK293-HuCD40 cells
[8] = target: T3, human FAP on the surface of CHO-K1 …; assay: FACS, CHO-K1-HuFAP cells; remark: listed apart in the source
[9] = target: T2, human CD40 on the surface of HEK293 …; assay: FACS, HEK293-HuCD40 cells; remark: listed apart in the source
[10] = target: T1, human 4-1BB on the surface of HEK293 …; assay: FACS, HEK293-Hu4-1BB cells; remark: listed apart in the source
[11] = target: T1, human 4-1BB on the surface of HEK293 …; assay: cell-based or functional assay; remark: listed apart in the source
[12] = target: T2, human CD40 on the surface of HEK293 …; assay: cell-based or functional assay; remark: listed apart in the source
[13] = target: T1, human 4-1BB on the surface of HEK293 …; assay: FACS, HEK293-Hu4-1BB cells; remark: listed apart in the source
[14] = target: T2, human CD40 on the surface of HEK293 …; assay: cell-based or functional assay; remark: listed apart in the source
[15] = target: T1, human 4-1BB on the surface of HEK293 …; assay: cell-based or functional assay; remark: listed apart in the source
[16] = target: T1, human 4-1BB on the surface of HEK293 …; assay: cell-based or functional assay; remark: listed apart in the source

EC50 [1]: 1.62 nM
Maximum fluorescence value [1]: 1030
Activation of HEK293-4-1BB cells (NF-κB reporter), Fold change in Emax [2]: 1.37 fold
FcγRIIb-mediated activation of HEK293-4-1BB cells (NF-κB reporter), Fold change in Emax [2]: 2.02 fold
EC50 [3]: 0.98 nM
EC50 [4]: 0.98 nM
Maximum fluorescence value [4]: 53700
B1: humanized anti-4-1BB nanobody C5_V2 linked to human IgG1-Fc (Fc fusion)
chain: QVQLVESGGGLVQPGGSLRLSCSASGFTFSSYAMSWVRQAPGKGLEWVSDINSGGESTFYEDSVKGRFTISRDNAKNTLYLQMNSLRAEDTAVYYCAKHPLTFTIATMNDYDYWGQGTLVTVSSEPKSADKTHTCPPCPAPELLGGPSVFLFPPKPKDTLMISRTPEVTCVVVDVEHEDPEVKFNWYVDGVEVHNAKTKPREEQYNSTYRVVSVLTVLHQDWLNGKEYKCKVSSKAFPAPIEKTISKAKGQPREPQVYTLPPSRDELTKNQVSLTCLVKGFYPSDIAVEWESNGQPENNYKTTPPVLDSDGSFFLYSKLTVDKSRWQQGNVFSCSVMHEALHNHYTQKSLSLSPGK

EC50 [3]: 0.62 nM
EC50 [4]: 0.62 nM
Maximum fluorescence value [4]: 53800
B2: C5_V2-YTI (TCE-optimized C5_V2, F99Y Kabat) linked to human IgG1-Fc (Fc fusion)
chain: B1 chain with F103Y

CD40/NF-κB reporter (HEK-Blue CD40L), 4-1BB-crosslinked, Fold change in Emax [5]: 5 fold
CD40/NF-κB reporter (HEK-Blue CD40L), FAP-crosslinked, EC50 [5]: 0.23 nM
CD40/NF-κB reporter (HEK-Blue CD40L), FAP-crosslinked, Fold change in Emax [5]: 6.47 fold
CD40/NF-κB reporter (HEK-Blue CD40L), uncrosslinked, Fold change in Emax [5]: 4.57 fold
EC50 [6]: 2.73 nM
Maximum fluorescence value [6]: 82700
EC50 [7]: 4.77 nM
Maximum fluorescence value [7]: 54000
EC50 [8]: 1.72 nM
Maximum fluorescence value [8]: 77200
EC50 [9]: 6.85 nM
Maximum fluorescence value [9]: 55200
Maximum fluorescence value [10]: 70
4-1BB/NF-κB luciferase reporter, CD40-crosslinked, Fold change in Emax [11]: 1.1 fold
4-1BB/NF-κB luciferase reporter, FAP-crosslinked, Fold change in Emax [11]: 1.05 fold
4-1BB/NF-κB luciferase reporter, uncrosslinked, Fold change in Emax [11]: 1.06 fold
CD40/NF-κB reporter (HEK-Blue CD40L), 4-1BB-crosslinked, Fold change in Emax [12]: 4.27 fold
CD40/NF-κB reporter (HEK-Blue CD40L), FAP-crosslinked, EC50 [12]: 0.35 nM
CD40/NF-κB reporter (HEK-Blue CD40L), FAP-crosslinked, Fold change in Emax [12]: 11.3 fold
CD40/NF-κB reporter (HEK-Blue CD40L), uncrosslinked, Fold change in Emax [12]: 3.73 fold
Maximum fluorescence value [13]: 73
CD40/NF-κB reporter (HEK-Blue CD40L), 4-1BB-crosslinked, Fold change in Emax [14]: 8.42 fold
CD40/NF-κB reporter (HEK-Blue CD40L), FAP-crosslinked, EC50 [14]: 0.025 nM
CD40/NF-κB reporter (HEK-Blue CD40L), FAP-crosslinked, Fold change in Emax [14]: 11.9 fold
CD40/NF-κB reporter (HEK-Blue CD40L), uncrosslinked, Fold change in Emax [14]: 7.05 fold
4-1BB/NF-κB luciferase reporter, CD40-crosslinked, Fold change in Emax [15]: 1.07 fold
4-1BB/NF-κB luciferase reporter, FAP-crosslinked, Fold change in Emax [15]: 1.01 fold
4-1BB/NF-κB luciferase reporter, uncrosslinked, Fold change in Emax [15]: 1.1 fold
B3: Ab10-A12V2-2 (FAP/CD40 bispecific antibody molecule, control) (bispecific antibody, human IgG1, kappa, L234A L235A)
heavy: not shown
light: DIQMTQSPSSVSASVGDRVTITCRASQGISSWLAWYQQKPGKAPKLLIYAASSLQSGVPSRFSGSGSGTDFTLTISSLQPEDFATYYCQQANSFPPAFGQGTKVEIKRTVAAPSVFIFPPSDEQLKSGTASVVCLLNNFYPREAKVQWKVDNALQSGNSQESVTEQDSKDSTYSLSSTLTLSKADYEKHKVYACEVTHQGLSSPVTKSFNRGEC

4-1BB/NF-κB luciferase reporter, FcγRIIb crosslinking, EC50 [16]: 0.027 nM
4-1BB/NF-κB luciferase reporter, no FcγRIIb crosslinking, EC50 [16]: 2.19 nM
EC50 [1]: 1.18 nM
Maximum fluorescence value [1]: 1000
Activation of HEK293-4-1BB cells (NF-κB reporter), Fold change in Emax [2]: 1.7 fold
FcγRIIb-mediated activation of HEK293-4-1BB cells (NF-κB reporter), Fold change in Emax [2]: 2.61 fold
EC50 [3]: 1.64 nM
EC50 [4]: 1.64 nM
Maximum fluorescence value [4]: 39700
B4: Urelumab (positive control anti-4-1BB antibody) (antibody, V domains shown)
VH: QVQLQQWGAGLLKPSETLSLTCAVYGGSFSGYYWSWIRQSPEKGLEWIGEINHGGYVTYNPSLESRVTISVDTSKNQFSLKLSSVTAADTAVYYCARDYGPGNYDWYFDLWGRGTLVTVSS
VL: EIVLTQSPATLSLSPGERATLSCRASQSVSSYLAWYQQKPGQAPRLLIYDASNRATGIPARFSGSGSGTDFTLTISSLEPEDFAVYYCQQRSNWPPALTFGGGTKVEIK
